# Reference: patent US11491212
# Where “and” joins values, the source holds several entries; their conditions need not be identical. Equal values may be shown once.
# Molecular target: Factor X (FX), P00742
# Sequence (P00742 whole entry, looked up): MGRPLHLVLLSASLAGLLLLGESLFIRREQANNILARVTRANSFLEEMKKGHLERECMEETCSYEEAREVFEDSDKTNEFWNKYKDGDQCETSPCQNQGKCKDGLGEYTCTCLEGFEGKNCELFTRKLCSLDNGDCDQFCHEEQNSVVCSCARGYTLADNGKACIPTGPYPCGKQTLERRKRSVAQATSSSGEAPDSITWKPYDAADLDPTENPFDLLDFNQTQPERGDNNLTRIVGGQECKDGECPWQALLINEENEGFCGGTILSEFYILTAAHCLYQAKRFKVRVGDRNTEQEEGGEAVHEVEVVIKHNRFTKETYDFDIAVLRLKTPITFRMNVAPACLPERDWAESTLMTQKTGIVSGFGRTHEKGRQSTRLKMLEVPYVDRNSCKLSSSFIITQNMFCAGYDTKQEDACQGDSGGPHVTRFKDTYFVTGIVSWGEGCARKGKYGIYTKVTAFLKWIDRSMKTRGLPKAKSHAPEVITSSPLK
Protein,KM [µM],kcat [s⁻¹],"% of WT kcat/KM (against Catalyst Biosciences WT FIXa), FX activation in the Xase complex [%]","KM (nM) for activation of FX by FIXa in the Xase complex (FVIIIa, PC/PS vesicles, Ca2+), fluorogenic Spectrafluor FXa assay [nM]","kcat/KM for FX activation by FIXa in the Xase complex (FVIIIa, PC/PS vesicles, Ca2+), indirect fluorogenic Spectrafluor FXa assay [M⁻¹ s⁻¹]",% of WT kcat/KM,"KM for FX activation by FIXa in the Xase complex (FVIIIa/PC-PS/Ca2+), fluorogenic Spectrafluor FXa assay [µM]"
FIXa-K247N/N249S/R318Y/R338E/R403E (protein) chain 1: not shown chain 2: not shown,0.0536,10.5,–,–,–,–,–
FIXa-Y155F/R318Y/R338E/N346D/R403E/E410N (protein) chain 1: not shown chain 2: not shown,0.1,–,139,100,6.2e+07,–,–
FIXa-D104N/K106S/Y155F/R318Y/R338E/R403E/E410N (protein) chain 1: not shown chain 2: not shown,0.048,8.5,–,–,–,394% and 382%,0.048
FIXa-D104N/K106S/K247N/N249S/N260S (protein) chain 1: not shown chain 2: not shown,0.0612,–,22,61.2,9.8e+06,–,–
FIXa-R318Y/R338E/Y345A/N346D/R403E/E410N (protein) chain 1: not shown chain 2: not shown,0.0565,1.2,–,–,–,–,–
FIXa-Y155F/K247N/N249S/R318Y/R338E/R403E (protein) chain 1: not shown chain 2: not shown,0.0673,5.7,–,–,–,–,–
FIXa-D203N/F205T/R318Y/E410N (protein) chain 1: not shown chain 2: not shown,0.0457,1.6,–,–,–,88% and 85%,0.0457
FIXa-A103N/N105S/Y155F/R318Y/R338E/R403E/E410N (protein) chain 1: not shown chain 2: not shown,0.0507,6.4,–,–,–,283% and 274%,0.0507
FIXa-D104N/K106S/N260S/R318Y/R338E/R403E/E410N (protein) chain 1: not shown chain 2: not shown,0.0611,–,196,61.1,8.8e+07,–,–
FIXa-Y155F/N260S/R318Y/R338E/R403E/E410N (protein) chain 1: not shown chain 2: not shown,0.0839,–,156,83.9,7e+07,–,–
FIXa-Y155F/R318Y/R338E/R403E/E410N (protein) chain 1: not shown chain 2: not shown,0.0304,5.3,–,–,–,418% and 406%,0.0304
FIXa-Y155F/K247N/N249S/N260S (protein) chain 1: not shown chain 2: not shown,0.0965,–,43,96.5,1.9e+07,–,–
